According to patent US10676749:

Tests used:
Assay in all cases: cell_activity
[1] = tested on: TALE-VP64 VEGF8-4 (synthetic); conditions: VEGF-A ELISA, 293 cells
[2] = tested on: TALE-VP64 VEGF2-4 (synthetic); conditions: VEGF-A ELISA, 293 cells
[3] = tested on: TALE-VP64 VEGF5-1 (synthetic); conditions: VEGF-A ELISA, 293 cells
[4] = tested on: TALE-VP64 Ntf3-3 (synthetic); conditions: NTF3 qRT-PCR, 293 cells
[5] = tested on: TALE-VP64 VEGF9-3 (synthetic); conditions: VEGF-A ELISA, 293 cells
[6] = tested on: TALE-VP64 VEGF1-6 (synthetic); conditions: VEGF-A ELISA, 293 cells
[7] = tested on: TALE-VP64 VEGF9-5 (synthetic); conditions: VEGF-A ELISA, 293 cells
[8] = tested on: TALE-VP64 Ntf3-1 (synthetic); conditions: NTF3 qRT-PCR, 293 cells; weakest about 1000-fold
[9] = tested on: TALE-VP64 VEGF6-4 (synthetic); conditions: VEGF-A ELISA, 293 cells
[10] = tested on: TALE-VP64 VEGF2-3 (synthetic); conditions: VEGF-A ELISA, 293 cells
[11] = tested on: TALE-VP64 VEGF9-2 (synthetic); conditions: VEGF-A ELISA, 293 cells
[12] = tested on: TALE-VP64 VEGF4-1 (synthetic); conditions: VEGF-A ELISA, 293 cells
[13] = tested on: TALE-VP64 VEGF1-1 (synthetic); conditions: VEGF-A ELISA, 293 cells; range 5.3-114 over 53 active TALEs
[14] = tested on: TALE-VP64 VEGF9-1 (synthetic); conditions: VEGF-A ELISA, 293 cells
[15] = tested on: TALE-VP64 VEGF5-3 (synthetic); conditions: VEGF-A ELISA, 293 cells
[16] = tested on: TALE-VP64 VEGF5-6 (synthetic); conditions: VEGF-A ELISA, 293 cells
[17] = tested on: TALE-VP64 VEGF3-4 (synthetic); conditions: VEGF-A ELISA, 293 cells
[18] = tested on: TALE-VP64 VEGF9-6 (synthetic); conditions: VEGF-A ELISA, 293 cells
[19] = tested on: TALE-VP64 VEGF7-4 (synthetic); conditions: VEGF-A ELISA, 293 cells
[20] = tested on: TALE-VP64 VEGF8-6 (synthetic); conditions: VEGF-A ELISA, 293 cells
[21] = tested on: TALE-VP64 VEGF2-2 (synthetic); conditions: VEGF-A ELISA, 293 cells
[22] = tested on: TALE-VP64 VEGF7-6 (synthetic); conditions: VEGF-A ELISA, 293 cells
[23] = tested on: TALE-VP64 VEGF3-2 (synthetic); conditions: VEGF-A ELISA, 293 cells
[24] = tested on: TALE-VP64 VEGF2-5 (synthetic); conditions: VEGF-A ELISA, 293 cells
[25] = tested on: TALE-VP64 VEGF5-2 (synthetic); conditions: VEGF-A ELISA, 293 cells
[26] = tested on: TALE-VP64 VEGF6-3 (synthetic); conditions: VEGF-A ELISA, 293 cells
[27] = tested on: TALE-VP64 VEGF8-1 (synthetic); conditions: VEGF-A ELISA, 293 cells
[28] = tested on: TALE-VP64 Ntf3-4 (synthetic); conditions: NTF3 qRT-PCR, 293 cells
[29] = tested on: TALE-VP64 VEGF1-5 (synthetic); conditions: VEGF-A ELISA, 293 cells
[30] = tested on: TALE-VP64 Ntf3-2 (synthetic); conditions: NTF3 qRT-PCR, 293 cells
[31] = tested on: TALE-VP64 VEGF3-5 (synthetic); conditions: VEGF-A ELISA, 293 cells
[32] = tested on: TALE-VP64 VEGF6-5 (synthetic); conditions: VEGF-A ELISA, 293 cells
[33] = tested on: TALE-VP64 VEGF4-4 (synthetic); conditions: VEGF-A ELISA, 293 cells
[34] = tested on: TALE-VP64 VEGF1-2 (synthetic); conditions: VEGF-A ELISA, 293 cells
[35] = tested on: TALE-VP64 VEGF7-3 (synthetic); conditions: VEGF-A ELISA, 293 cells
[36] = tested on: TALE-VP64 Ntf3-5 (synthetic); conditions: NTF3 qRT-PCR, 293 cells
[37] = tested on: TALE-VP64 VEGF4-2 (synthetic); conditions: VEGF-A ELISA, 293 cells
[38] = tested on: TALE-VP64 VEGF3-6 (synthetic); conditions: VEGF-A ELISA, 293 cells
[39] = tested on: TALE-VP64 VEGF5-4 (synthetic); conditions: VEGF-A ELISA, 293 cells
[40] = tested on: TALE-VP64 VEGF1-3 (synthetic); conditions: VEGF-A ELISA, 293 cells
[41] = tested on: TALE-VP64 VEGF5-5 (synthetic); conditions: VEGF-A ELISA, 293 cells
[42] = tested on: TALE-VP64 VEGF9-4 (synthetic); conditions: VEGF-A ELISA, 293 cells
[43] = tested on: TALE-VP64 VEGF7-2 (synthetic); conditions: VEGF-A ELISA, 293 cells
[44] = tested on: TALE-VP64 VEGF4-3 (synthetic); conditions: VEGF-A ELISA, 293 cells
[45] = tested on: TALE-VP64 VEGF7-5 (synthetic); conditions: VEGF-A ELISA, 293 cells
[46] = tested on: TALE-VP64 VEGF8-5 (synthetic); conditions: VEGF-A ELISA, 293 cells
[47] = tested on: TALE-VP64 VEGF1-4 (synthetic); conditions: VEGF-A ELISA, 293 cells; site printed with S at position 6
[48] = tested on: TALE-VP64 VEGF6-1 (synthetic); conditions: VEGF-A ELISA, 293 cells
[49] = tested on: TALE-VP64 VEGF2-1 (synthetic); conditions: VEGF-A ELISA, 293 cells
[50] = tested on: TALE-VP64 VEGF8-2 (synthetic); conditions: VEGF-A ELISA, 293 cells
[51] = tested on: TALE-VP64 VEGF2-6 (synthetic); conditions: VEGF-A ELISA, 293 cells
[52] = tested on: TALE-VP64 VEGF3-1 (synthetic); conditions: VEGF-A ELISA, 293 cells
[53] = tested on: TALE-VP64 VEGF4-5 (synthetic); conditions: VEGF-A ELISA, 293 cells
[54] = tested on: TALE-VP64 VEGF6-2 (synthetic); conditions: VEGF-A ELISA, 293 cells
[55] = tested on: TALE-VP64 VEGF4-6 (synthetic); conditions: VEGF-A ELISA, 293 cells
[56] = tested on: TALE-VP64 VEGF8-3 (synthetic); conditions: VEGF-A ELISA, 293 cells
[57] = tested on: TALE-VP64 VEGF6-6 (synthetic); conditions: VEGF-A ELISA, 293 cells
[58] = tested on: TALE-VP64 VEGF3-3 (synthetic); conditions: VEGF-A ELISA, 293 cells

TCCACTGTCCGCCGCCGGCCGG (double strand) [VEGF8-4 site]
activity (fold activation) [1]: > 5.3

TCCCGCAGCTGACCAGTCGCGC (double strand) [VEGF2-4 site]
activity (fold activation) [2]: > 5.3

TGGACGCGGCGGCGAG (double strand) [VEGF5-1 site]
activity (fold activation) [3]: > 5.3

TTCCCCTGCTGGGTAGTG (double strand) [Ntf3-3 site]
activity (fold activation (approx)) [4]: > 1000

TCCACCCCGCCTCCGGGCGC (double strand) [VEGF9-3 site]
activity (fold activation) [5]: > 5.3

TTGGGGGTGACCGCCGGAGCGCGGCG (double strand) [VEGF1-6 site]
activity (fold activation) [6]: > 5.3

TCCACCCCGCCTCCGGGCGCGGGC (double strand) [VEGF9-5 site]
activity (fold activation) [7]: > 5.3

TTCTGTTCACGGGACTCA (double strand) [Ntf3-1 site]
activity (fold activation (approx)) [8]: > 1000

TCCCAAGGGGGAGGGCTCACGC (double strand) [VEGF6-4 site]
activity (fold activation) [9]: > 5.3

TCCCGCAGCTGACCAGTCGC (double strand) [VEGF2-3 site]
activity (fold activation) [10]: > 5.3

TCCACCCCGCCTCCGGGC (double strand) [VEGF9-2 site]
activity (fold activation) [11]: > 5.3

TCCCCGGCCGGCGGCG (double strand) [VEGF4-1 site]
activity (fold activation) [12]: > 5.3

TTGGGGGTGACCGCCG (double strand) [VEGF1-1 site]
activity (fold activation) [13]: > 5.3

TCCACCCCGCCTCCGG (double strand) [VEGF9-1 site]
activity (fold activation) [14]: > 5.3

TGGACGCGGCGGCGAGCCGC (double strand) [VEGF5-3 site]
activity (fold activation) [15]: > 5.3

TGGACGCGGCGGCGAGCCGCGGGCAG (double strand) [VEGF5-6 site]
activity (fold activation) [16]: > 5.3

TACCACCTCCTCCCCGGCCGGC (double strand) [VEGF3-4 site]
activity (fold activation) [17]: > 5.3

TCCACCCCGCCTCCGGGCGCGGGCTC (double strand) [VEGF9-6 site]
activity (fold activation) [18]: > 5.3

TCCGTCAGCGCGACTGGTCAGC (double strand) [VEGF7-4 site]
activity (fold activation) [19]: > 5.3

TCCACTGTCCGCCGCCGGCCGGGGAG (double strand) [VEGF8-6 site]
activity (fold activation) [20]: > 5.3

TCCCGCAGCTGACCAGTC (double strand) [VEGF2-2 site]
activity (fold activation) [21]: > 5.3

TCCGTCAGCGCGACTGGTCAGCTGCG (double strand) [VEGF7-6 site]
activity (fold activation) [22]: > 5.3

TACCACCTCCTCCCCGGC (double strand) [VEGF3-2 site]
activity (fold activation) [23]: > 5.3

TCCCGCAGCTGACCAGTCGCGCTG (double strand) [VEGF2-5 site]
activity (fold activation) [24]: > 5.3

TGGACGCGGCGGCGAGCC (double strand) [VEGF5-2 site]
activity (fold activation) [25]: > 5.3

TCCCAAGGGGGAGGGCTCAC (double strand) [VEGF6-3 site]
activity (fold activation) [26]: > 5.3

TCCACTGTCCGCCGCC (double strand) [VEGF8-1 site]
activity (fold activation) [27]: > 5.3

TACGCCTCAGACCTGATC (double strand) [Ntf3-4 site]
activity (fold activation (approx)) [28]: > 1000

TTGGGGGTGACCGCCGGAGCGCGG (double strand) [VEGF1-5 site]
activity (fold activation) [29]: > 5.3

TCCGAACAGCTCCGCGCA (double strand) [Ntf3-2 site]
activity (fold activation (approx)) [30]: > 1000

TACCACCTCCTCCCCGGCCGGCGG (double strand) [VEGF3-5 site]
activity (fold activation) [31]: > 5.3

TCCCAAGGGGGAGGGCTCACGCCG (double strand) [VEGF6-5 site]
activity (fold activation) [32]: > 5.3

TCCCCGGCCGGCGGCGGACAGT (double strand) [VEGF4-4 site]
activity (fold activation) [33]: > 5.3

TTGGGGGTGACCGCCGGA (double strand) [VEGF1-2 site]
activity (fold activation) [34]: > 5.3

TCCGTCAGCGCGACTGGTCA (double strand) [VEGF7-3 site]
activity (fold activation) [35]: > 5.3

TCCCTCAATCTGGGAAAG (double strand) [Ntf3-5 site]
activity (fold activation (approx)) [36]: > 1000

TCCCCGGCCGGCGGCGGA (double strand) [VEGF4-2 site]
activity (fold activation) [37]: > 5.3

TACCACCTCCTCCCCGGCCGGCGGCG (double strand) [VEGF3-6 site]
activity (fold activation) [38]: > 5.3

TGGACGCGGCGGCGAGCCGCGG (double strand) [VEGF5-4 site]
activity (fold activation) [39]: > 5.3

TTGGGGGTGACCGCCGGAGC (double strand) [VEGF1-3 site]
activity (fold activation) [40]: > 5.3

TGGACGCGGCGGCGAGCCGCGGGC (double strand) [VEGF5-5 site]
activity (fold activation) [41]: > 5.3

TCCACCCCGCCTCCGGGCGCGG (double strand) [VEGF9-4 site]
activity (fold activation) [42]: > 5.3

TCCGTCAGCGCGACTGGT (double strand) [VEGF7-2 site]
activity (fold activation) [43]: > 5.3

TCCCCGGCCGGCGGCGGACA (double strand) [VEGF4-3 site]
activity (fold activation) [44]: > 5.3

TCCGTCAGCGCGACTGGTCAGCTG (double strand) [VEGF7-5 site]
activity (fold activation) [45]: > 5.3

TCCACTGTCCGCCGCCGGCCGGGG (double strand) [VEGF8-5 site]
activity (fold activation) [46]: > 5.3

TTGGGGGTGACCGCCGGAGCGC (double strand) [VEGF1-4 site]
activity (fold activation) [47]: > 5.3

TCCCAAGGGGGAGGGC (double strand) [VEGF6-1 site]
activity (fold activation) [48]: > 5.3

TCCCGCAGCTGACCAG (double strand) [VEGF2-1 site]
activity (fold activation) [49]: > 5.3

TCCACTGTCCGCCGCCGG (double strand) [VEGF8-2 site]
activity (fold activation) [50]: > 5.3

TCCCGCAGCTGACCAGTCGCGCTGAC (double strand) [VEGF2-6 site]
activity (fold activation) [51]: > 5.3

TACCACCTCCTCCCCG (double strand) [VEGF3-1 site]
activity (fold activation) [52]: > 5.3

TCCCCGGCCGGCGGCGGACAGTGG (double strand) [VEGF4-5 site]
activity (fold activation) [53]: > 5.3

TCCCAAGGGGGAGGGCTC (double strand) [VEGF6-2 site]
activity (fold activation) [54]: > 5.3

TCCCCGGCCGGCGGCGGACAGTGGAC (double strand) [VEGF4-6 site]
activity (fold activation) [55]: > 5.3

TCCACTGTCCGCCGCCGGCC (double strand) [VEGF8-3 site]
activity (fold activation) [56]: > 5.3

TCCCAAGGGGGAGGGCTCACGCCGCG (double strand) [VEGF6-6 site]
activity (fold activation) [57]: > 5.3

TACCACCTCCTCCCCGGCCG (double strand) [VEGF3-3 site]
activity (fold activation) [58]: > 5.3
